Laboratory results: US20240182561A1 (Regeneron, published 2024)

T1: mouse CACNG1 expressed on cells (mouse, UniProt O70578 1-223)
T1 construct: whole, on cells; Transfected in HEK293/mCACNG1; endogenous in C2C12 myotubes and wildtype mouse myofibers; Each row names the cell type under assay; also called mCACNG1; HEK293/mCACNG1
T1 sequence (looked up): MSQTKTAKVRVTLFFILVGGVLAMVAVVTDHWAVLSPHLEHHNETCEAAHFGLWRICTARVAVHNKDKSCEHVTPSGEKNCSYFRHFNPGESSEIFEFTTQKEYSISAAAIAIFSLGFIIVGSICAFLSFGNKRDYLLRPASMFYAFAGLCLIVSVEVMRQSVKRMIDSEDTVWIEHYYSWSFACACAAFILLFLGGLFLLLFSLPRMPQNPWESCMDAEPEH


Legend:
[1] = biological target: T2, human CACNG1 expressed on cells (human, UniProt Q06432 1-222); assay: imaging cell binding, HuSKM myotubes
T2 construct: also called hCACNG1; HEK293/hCACNG1
Method: (§1) HuSKM were seeded in collagen-coated 96-well plates (Greiner Bio-One #655956) at 8,500 cells/well and grown for 24 hours. The growth media was changed to MyoTonic Differentiation Media (Cook Myosite Cat #MD-5555) and replaced every 2 days. Myotubes were assayed after 6 days of differentiation. C2C12 mouse myoblasts were maintained in DMEM with 10% FBS and 1% penicillin-streptomycin supplement and grown in a 37° C. incubator with 5% CO₂. C2C12 cells were seeded in collagen-coated 96-well plates (Greiner Bio-One #655956) at 10,000 cells/well for the cell binding assay and 5,000 cells/well for the cell killing assay. After 24 hours, growth media was replaced with differentiation media (DMEM with 2% horse serum) and placed in a 37° C. incubator with 7.5% CO₂. C2C12 myotubes were assayed after 3 days of differentiation. HEK293/hCACNG1, HEK293/mCACNG1, and HEK293 cells were seeded at 10,000 cells (cell binding assay) or 2,000 (cell killing assay) per well in 96-well black collagen coated plates (Greiner Bio-One, cat #655956) in complete growth media and grown overnight at 37° C. in 5% CO₂.
(§2) Relative binding of anti-CACNG1 antibodies was assessed across the entire panel of cell lines via imaging analysis. […] After one wash with antibody dilution buffer, samples were fixed in CytoFix (BD Biosciences, Cat #554655) diluted 1:1 in PBS and supplemented with a 1:2000 dilution of Hoechst 33342 (Thermo, Cat #H1399) for 20 minutes on ice. Images were acquired with a 10× objective on the Opera Phenix (Perkin Elmer) and relative fluorescence units (RFU) was determined using Harmony software (Perkin Elmer).

[2] = biological target: T3, nanodisc embedded human CACNG1 expressed with a C-terminal PADRE-Flag-His tag (human, UniProt Q06432 1-222); assay: SPR, anti-His-captured nanodisc, 25 C
T3 construct: Captured on an anti-His Biacore surface; also called human CACNG1 nanodisc; CACNG1 nanodisc; not shown: C-terminal tag
Method: Equilibrium dissociation constants (KD values) for nanodisc embedded human CACNG1 expressed with a C-terminal […] tag (human CACNG1 nanodisc; concentration 0.82 mg/ml) binding to purified anti-CACNG1 antibodies were determined using a real-time surface plasmon resonance biosensor technology with a Biacore T200 instrument. The CM5 Biacore sensor surface was derivatized by amine coupling with a monoclonal mouse anti-His antibody (Cytiva; Marlborough, MA). All Biacore binding studies were performed in a buffer composed of 0.01M HEPES, 0.15M NaCl, 1 mM CaCl₂, 0.5 mM MgCl₂, pH 7.4 (HBS-N++ running buffer). Different concentrations of anti-CACNG1 antibodies (ranging from 300 nM to 12 nM in 5-fold serial dilutions) prepared in HBS-N++ running buffer were injected over the captured human CACNG1 nanodisc at a flow rate of 30 μL/minute. Antibody association was monitored for 2 minutes while dissociation was monitored in HBS-N++ running buffer for 5 minutes. At the end of each cycle, the human CACNG1 nanodisc capture surface was regenerated using three 10 second injections of 10 mM Gly pH1.5. All binding kinetics experiments were performed at 25° C.
The specific SPR-Biacore sensorgrams were obtained by a double referencing procedure. The double referencing was performed by first subtracting the signal of each injection over a reference surface (anti-His) from the signal over the experimental surface (anti-His captured human CACNG1 nanodisc) thereby removing contributions from refractive index changes. In addition, running buffer injections were performed to allow subtraction of the signal changes resulting from the dissociation of captured antibodies from the coupled anti-His surface. Kinetic association (kₐ) and dissociation ([…]) rate constants were determined by fitting the real-time sensorgrams to a 1:1 binding model using Scrubber v2.0c curve fitting software. Binding dissociation equilibrium constants (KD) and dissociative half-lives (t %) were calculated from the kinetic rate constants as: […]

[3] = biological target: T1, mouse CACNG1 expressed on cells; assay: imaging cell binding, C2C12 mouse myotubes
Method: as §1, §2

[4] = biological target: T2, human CACNG1 expressed on cells; assay: cell-based or functional assay
[5] = biological target: T1, mouse CACNG1 expressed on cells; assay: cell-based or functional assay
[6] = biological target: T2, human CACNG1 expressed on cells; assay: imaging cell binding, HEK293/hCACNG1
Method: as §1, §2

[7] = biological target: T1, mouse CACNG1 expressed on cells; assay: imaging cell binding, HEK293/mCACNG1
Method: as §1, §2

[8] = biological target: T2, human CACNG1 expressed on cells; assay: imaging cell binding, HuSKM myotubes; remark: listed apart in the source
Method: as §1, §2

[9] = biological target: T1, mouse CACNG1 expressed on cells; assay: imaging cell binding, C2C12 mouse myotubes; remark: listed apart in the source
Method: as §1, §2

[10] = biological target: T2, human CACNG1 expressed on cells; assay: imaging cell binding, HEK293/hCACNG1; remark: listed apart in the source
Method: as §1, §2

T2 sequence (Q06432 whole entry): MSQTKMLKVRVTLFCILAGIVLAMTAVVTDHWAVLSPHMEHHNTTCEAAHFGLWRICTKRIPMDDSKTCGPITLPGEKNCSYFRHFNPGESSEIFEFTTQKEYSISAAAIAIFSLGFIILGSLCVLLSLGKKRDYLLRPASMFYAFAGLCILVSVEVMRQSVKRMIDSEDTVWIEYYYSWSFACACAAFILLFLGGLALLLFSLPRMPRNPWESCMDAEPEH
T3 sequence (Q06432 whole entry): as above

Binder	EC50 [1] [nM]	S/N [1] [fold]	Kd [2] [nM]	koff [2] [s⁻¹]	kon [2] [M⁻¹ s⁻¹]	mAb bound at 300 nM [2] [RU]	t1/2 [2] [min]	EC50 [3] [nM]	S/N [3] [fold]	% KILL, indirect cell killing, HEK293/hCACNG1 [4] [%]	% KILL, indirect cell killing, HuSKM [4] [%]	EC50/IC50, indirect cell killing, HEK293/hCACNG1 [4] [pM]	EC50/IC50, indirect cell killing, HuSKM [4] [pM]	% KILL, indirect cell killing, C2C12 [5] [%]	% KILL, indirect cell killing, HEK293/mCACNG1 [5] [%]	EC50/IC50, indirect cell killing, C2C12 [5] [pM]	EC50/IC50, indirect cell killing, HEK293/mCACNG1 [5] [pM]	EC50 [6] [nM]	S/N [6] [fold]	S/N [7] [fold]	also measured
REGN10712 (antibody, human IgG4 S228P, lambda, V domains shown, hIgG4) VH: QVQLVESGGGVVQPGRSLRLSCAASGFTFSTYGMYWVRQTPGKGLEWVTVISFDGNKKYYADSVKGRFTISRDNSKNTLFLQMNSLKTEDTAVYYCAKSSNWNYGSFDIWGQGTMVTVSS VL: QSVLTQPPSVSGAPGQRVTISCTGSSSNIGAGYDVHWYQQLPGTAPRLLISYNSNRPSGVPDRFSGSKSGTSASLAITGLQAEDEADYYCQSYDRSLSGSVFGGGTQLTVLG	0.053	102	4.53	0.00332	733000	31	3.5	> 100	8.6												
H4H31265P2 (antibody, human IgG4 S228P, kappa, V domains shown, also called H4H31265P2/REGN5972 (lot H4H31265P2-L1)) VH: QVQLVESGGGVVQPGRSLRLSCTASGFTFRSYGMHWVRQAPGKGLEWVSVIWIDGNNIYYADSVKGRFTISRDNSKNTLYLQMDSLRAEDTAVYYCARRLAITSAAPFDYWGQGTLVTVSS VL: not shown			81	0.0084	104000	14	1.4			94.6	95.6	2.45	560	3.4	22.9	> 10000	> 1000	11	247	1.2	EC50 [8]: 3.3 nM; S/N [8]: 250 fold; S/N [9]: 0.8 fold; binding result [9]: no binding (tested: 100 nM highest tested)
REGN10716 (antibody, human IgG4 S228P, kappa, hIgG4) heavy: not shown light: EIVLTQSPGTLSLSPGERATLSCRASQTINHNNLAWYQQRPGQAPRLLIYGASNRATAIPDRFSGSGSGTDFTLTISRLEPEDFEVYSCQQYGSLPLTFGGGTKVEIKRTVAAPSVFIFPPSDEQLKSGTASVVCLLNNFYPREAKVQWKVDNALQSGNSQESVTEQDSKDSTYSLSSTLTLSKADYEKHKVYACEVTHQGLSSPVTKSFNRGEC	12	81.1	0.114	8.36e-05	730000	31	138	> 100	5.2	95.1	61.7	2.95	340	99.9	91.2	16.7	8.93	> 100	35.9	21.4	EC50 [7]: > 100 nM; EC50 [8]: 13 nM; S/N [8]: 466 fold; EC50 [10]: > 100 nM; S/N [10]: 2.2 fold; EC50 [9]: > 100 nM; S/N [9]: 6.3 fold
